Measurements as given in patent US20260250338A1 (Molecular Partners, published 2026).
Each block holds one binder with its values, some of them ahead of it.

Experiments:
[1] = target: T1, CD16aV allotype of human CD16a expressed on Jurkat-Lucia-NFAT-CD16 Reporter cells (InvivoGen) (human, UniProt P08637 17-254); assay: flow cytometry on Jurkat cells expressing CD16aV, conditions as in Example 2
T1 construct: whole, on cells; also called CD16a expressing cells; Jurkat CD16aV

[2] = target: T2, full length human CD16b stably expressed on transduced WT Jurkat cells (human, UniProt O75015 17-200); assay: flow cytometry on Jurkat cells expressing CD16b, conditions as in Example 2
T2 construct: whole, on cells; also called CD16b expressing cells; Jurkat CD16b

[3] = target: T1, CD16aV allotype of human CD16a …; assay: cell-based or functional assay
[4] = target: T2, full length human CD16b stably …; assay: flow cytometry on Jurkat-CD16b cells, 5-fold serial dilutions, detection with Penta-His Alexa Fluor 488
Description: (§1) Serial dilutions (5-fold) of the constructs were incubated 30 min at 4° C. with 50000 cells in a 96-well plate. […] Cold buffer was added, then cells were spun down prior to supernatant removal. Cells were then fixed with Cell fix buffer (BD) and signal was measured by flow cytometry.

[5] = target: T1, CD16aV allotype of human CD16a …; assay: flow cytometry on Jurkat-CD16aV cells, 5-fold serial dilutions, detection with Penta-His Alexa Fluor 488
Description: as §1

[6] = target: T1, CD16aV allotype of human CD16a …; assay: flow cytometry on Jurkat-CD16aV cells, serial dilutions, detection with Penta-His Alexa Fluor 647
[7] = target: T2, full length human CD16b stably …; assay: flow cytometry on Jurkat-CD16b cells, serial dilutions, detection with Penta-His Alexa Fluor 647
[8] = target: T3, biotinylated human CD16aV target (bio-CD16aV of SEQ ID NO: 72) (human, UniProt P08637 17-208, biotinylated (Sulfo-NHS-LC-Biotin kit)); assay: SPR (ProteOn XPR36), bio-CD16aV immobilised on NLC chip, construct injected at 100 nM and 1:3 dilutions, PBST, 1:1 Langmuir fit
T3 construct: also called recombinant CD16a target
Description: SPR measurements were performed using a ProteOn XPR36 instrument (BioRad). […] The signals were double referenced against the running buffer (PBST) treated control lanes.

[9] = target: T4, biotinylated cynomolgus CD16 target (bio-cCD16 of SEQ ID NO: 76) (cynomolgus monkey, biotinylated); assay: SPR (ProteOn XPR36), biotinylated target on neutravidin chip, DARPin injected at 100 nM and 1:3 dilutions, 1:1 Langmuir fit
T4 construct: also called Cyno CD16a
T4 chain: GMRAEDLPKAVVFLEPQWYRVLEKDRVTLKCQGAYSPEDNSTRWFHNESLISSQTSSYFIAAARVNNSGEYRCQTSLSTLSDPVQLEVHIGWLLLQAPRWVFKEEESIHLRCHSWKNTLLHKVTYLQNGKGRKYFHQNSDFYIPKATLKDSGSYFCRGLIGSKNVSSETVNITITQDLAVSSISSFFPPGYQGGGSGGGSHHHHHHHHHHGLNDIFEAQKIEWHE
Description: (§2) SPR measurements were performed using a ProteOn XPR36 instrument (BioRad). Each of biotinylated human target (bio-CD16aV of SEQ ID NO: 72) and biotinylated cyno target (bio-cCD16 of SEQ ID NO: 76) were immobilized on a neutravidin chip (NAHLC200M, Xantec ProteOn Sensor Chip) to a level of about 320 RU. The interactions of purified CD16a-specific ankyrin construct with bio-CD16aV or bio-cCD16 were measured by injecting the DARPins at 100 nM (and 1:3 dilutions) with an association of 180 s and dissociation of 600 s using a constant flow of 30 μl/min. The target was regenerated between the individual measurements using 31 mM H3PO4. The signals were double referenced against the running buffer (PBST) treated control lanes. The KD were calculated with a 1:1 Langmuir model fitting from the estimated on- and off-rates using standard procedures known to the person skilled in the art.

[10] = target: T3, biotinylated human CD16aV target …; assay: as above
Description: as §2

[11] = target: T1, CD16aV allotype of human CD16a …; assay: cell-based or functional assay; remark: listed apart in the source
[12] = target: T1, CD16aV allotype of human CD16a …; assay: cell-based or functional assay; remark: listed apart in the source
[13] = target: T5, CD32a expressed on Jurkat-NFAT-CD32a reporter cells (Invivogen jktl-nfat-cd32) (UniProt P12318 34-317, limits assumed); assay: flow cytometry on Jurkat-NFAT-CD32a cells, 4-fold serial dilutions, detection with anti-DARPin 1.1.1 antibody
T5 construct: whole, on cells; also called Jurkat-Lucia NFAT-CD32a Reporter cells; Fc receptor CD32a
T5 sequence (looked up): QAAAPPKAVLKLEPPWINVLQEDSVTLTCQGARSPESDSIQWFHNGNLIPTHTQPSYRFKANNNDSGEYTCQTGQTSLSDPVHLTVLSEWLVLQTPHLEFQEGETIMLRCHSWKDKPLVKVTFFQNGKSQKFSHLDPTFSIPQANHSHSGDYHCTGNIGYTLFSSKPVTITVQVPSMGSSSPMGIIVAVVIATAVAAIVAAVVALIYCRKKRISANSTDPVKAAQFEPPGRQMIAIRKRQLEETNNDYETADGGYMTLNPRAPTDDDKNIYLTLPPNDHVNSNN
Description: Serial dilutions (4-fold) of the constructs were incubated 30 min at 4° C. with 50000 cells in a 96-well plate. Detection antibody (anti-DARPin 1.1.1 Alexa Fluor […]) was subsequently added to the wells (2 μg/ml diluted in FACS buffer) and incubated at 4° C. for 30 min. Cold buffer was added, then cells were spun down prior to supernatant removal. Cells were then fixed with Cell fix buffer (BD) and signal was measured by flow cytometry.

T1 sequence (P08637 17-254 F176V): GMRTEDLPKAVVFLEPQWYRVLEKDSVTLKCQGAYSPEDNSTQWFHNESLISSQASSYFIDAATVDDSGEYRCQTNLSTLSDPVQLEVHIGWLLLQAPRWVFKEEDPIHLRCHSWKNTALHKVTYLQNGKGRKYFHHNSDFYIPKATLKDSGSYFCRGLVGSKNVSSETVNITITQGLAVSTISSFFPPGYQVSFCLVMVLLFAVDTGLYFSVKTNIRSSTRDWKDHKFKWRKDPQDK
T2 sequence (O75015 17-200): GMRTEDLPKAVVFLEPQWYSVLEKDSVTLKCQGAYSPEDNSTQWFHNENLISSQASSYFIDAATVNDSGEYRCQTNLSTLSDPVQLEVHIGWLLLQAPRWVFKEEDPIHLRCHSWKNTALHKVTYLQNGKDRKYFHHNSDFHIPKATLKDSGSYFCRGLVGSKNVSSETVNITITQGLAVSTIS
T3 sequence (P08637 other isoform, or with tags, fused parts or gaps): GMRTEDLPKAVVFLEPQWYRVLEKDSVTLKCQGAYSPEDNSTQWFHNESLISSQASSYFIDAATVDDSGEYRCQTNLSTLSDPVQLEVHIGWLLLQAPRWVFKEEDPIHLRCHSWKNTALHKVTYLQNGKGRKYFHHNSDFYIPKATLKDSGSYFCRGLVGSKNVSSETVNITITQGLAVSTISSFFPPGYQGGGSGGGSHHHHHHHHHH

B1: Construct 25 (SEQ ID NO: 94), CD117 × CD16a, CD117 binder SEQ ID NO: 84 N-terminal of DARPin #7 (designed binder)
chain: MRGSHHHHHHGSDLGQKLLKAAQYGQDDEVRILLAAGADVNAKDWAGKTPLHVAAEAGHLEIVEVLLKAGADVNAKDKAGETPLHLAAEQGHLEIVEVLLKAGADVNAQDEWGQTPADLAAYYGLEDIAEVLQKAAGSPTPTPTTPTPTPTTPTPTPTGSDLGQKLLRAAKKGQDDEVRELLKAGADVNAKDEQGWTPLHNAAWKGHLEIVEVLLKAGADVNAKDVFDWTPLHVAAHFGHLEIVEVLLKAGADVNAQDRAGETPADLAAQAGHEDIAEVLQKAA
notes: Bispecific DARPin; also called Construct No. 25
EC50 [1]: 25.3 nM
binding result [2]: no binding
EC50 (pM), DDCC reporter assay (luminescence), Kasumi-1 target cells, E:T 1:1, 24 h [3]: 59.5 pM
Top (RLU), DDCC reporter assay (luminescence), Kasumi-1 target cells [3]: 36400 RLU

B6: Construct No. 1 (1D CD16a; DARPin #2 of SEQ ID NO: 2 with N-terminal His tag) (designed binder)
chain: MRGSHHHHHHGSDLGQKLLRAAKKGQDDEVRELLKAGADVNAKDEQGWTPLHIAAWKGHLEIVEVLLKAGADVNAKDVFDWTPLHVAAHFGHLEIVEVLLKAGADVNAQDRAGETPADLAAQAGHEDIAEVLQKAA
notes: also called Construct 1
Kd [8]: 3.3 nM
binding result [4]: no binding (tested: 1000 nM)
Kd [9]: 3.41 nM
Kd [10]: 5.94 nM
binding result [5]: binds

B8: Construct No. 7 (SEQ ID NO: 10), 2D (HER2 × CD16a), DARPin #2 with N-terminal HER2 binder of SEQ ID NO: 8 (designed binder)
chain: MRGSHHHHHHGSDLGKKLLEAARAGQDDEVRELLKAGADVNAKDEYGLTPLYLATAHGHLEIVEVLLKAGADVNAVDAIGFTPLHLAAFIGHLEIAEVLLKAGADVNAQDKFGKTPADIAAGAGNEDIAEVLQKAAGSPTPTPTTPTPTPTTPTPTPTGSDLGQKLLRAAKKGQDDEVRELLKAGADVNAKDEQGWTPLHIAAWKGHLEIVEVLLKAGADVNAKDVFDWTPLHVAAHFGHLEIVEVLLKAGADVNAQDRAGETPADLAAQAGHEDIAEVLQKAA
notes: Bispecific DARPin; also called Construct 7
EC50 (pM), ADCC reporter assay (luminescence), SKOV3 target cells, E:T 5:1, 5 h [11]: 0.37 pM
EC50 ADCC reporter assay (CD16a) (pM), SKOV3 target cells, E:T 1:1, 24 h [12]: 4 pM
binding result [13]: no binding (tested: 400 nM)

Other lines, results leading:

binding result [4]: no binding (tested: 1000 nM)
EC50 (read off the curve) [5]: ~20 nM
B2: Construct No. 2 (1D CD16a; DARPin #3 of SEQ ID NO: 3 with N-terminal His tag) (designed binder)
chain: MRGSHHHHHHGSDLGKKLLQAARAGQLDEVRELLKAGADVNAKDEQGRTPLHIAAASGHLEIVEVLLKAGADVNAKDWFGITPLHIAAWWGHLEIVEVLLKAGADVNAKDQEGRTPLHIAAAIGHLEIVEVLLKAGADVNAQDKSGKTPADLAARAGHQDIAEVLQKAA
notes: also called Construct 2

binding result [6]: binds
binding result [7]: no binding (tested: 1000 nM)
B3: Construct No. 18 (SEQ ID NO: 21), 2D (HER2 × CD16a), DARPin #6 with N-terminal HER2 binder of SEQ ID NO: 9 (designed binder)
chain: MRGSHHHHHHDYKDDDDKPTPTPTGSDLGIKLLFAAAKGQDDEVRELLKAGADVNAKDFQGVTPLHIAAQSGHLEIVEVLLKAGADVNAKDVTGDTPLHLAAQHGHLEIVEVLLKAGADVNAQDERGWTPADLAADWGHEDIAEVLQKAAGSPTPTPTTPTPTPTTPTPTPTGSDLGKKLLEAAEEGQDDEVRELLKAGADVNAKDEWGSTPLHIAAWVGHLEIVEVLLKAGADVNAKDSLGATPLHLAAEAGHLEIVEVLLKAGADVNAQDLKGKTPADLAALEGHEDIAEVLQKAA
notes: Bispecific DARPin; also called Construct 18

binding result [6]: binds
binding result [7]: no binding (tested: 1000 nM)
B4: Construct No. 16 (SEQ ID NO: 19), 2D (HER2 × CD16a), DARPin #4 with N-terminal HER2 binder of SEQ ID NO: 9 (designed binder)
chain: MRGSHHHHHHDYKDDDDKPTPTPTGSDLGIKLLFAAAKGQDDEVRELLKAGADVNAKDFQGVTPLHIAAQSGHLEIVEVLLKAGADVNAKDVTGDTPLHLAAQHGHLEIVEVLLKAGADVNAQDERGWTPADLAADWGHEDIAEVLQKAAGSPTPTPTTPTPTPTTPTPTPTGSDLGEKLLLAAALGQDDEVRELLKAGADVNAKDVQGSTPLHLAAVEGHLEIVEVLLKAGADVNAKDQWGQTPLHVAAIWGHLEIVEVLLKAGADVNAQDELGKTPADLVALQGHEDIAEVLQKAA
notes: Bispecific DARPin; also called Construct 16

binding result [6]: binds
binding result [7]: no binding (tested: 1000 nM)
B5: Construct No. 17 (SEQ ID NO: 20), 2D (HER2 × CD16a), DARPin #5 with N-terminal HER2 binder of SEQ ID NO: 9 (designed binder)
chain: MRGSHHHHHHDYKDDDDKPTPTPTGSDLGIKLLFAAAKGQDDEVRELLKAGADVNAKDFQGVTPLHIAAQSGHLEIVEVLLKAGADVNAKDVTGDTPLHLAAQHGHLEIVEVLLKAGADVNAQDERGWTPADLAADWGHEDIAEVLQKAAGSPTPTPTTPTPTPTTPTPTPTGSDLGAKLLRAAKKGQDDEVRELLKAGADVNAKDELGFTPLHVAAEEGHLEIVEVLLKAGADVNAKDSWGATPLHVAAWVGHLEIVEVLLKAGADVNAQDQEGQTPADLAAEAGHEDIAEVLQKAA
notes: Bispecific DARPin; also called Construct 17

Kd [9]: 0.904 nM
Kd [10]: 1.98 nM
B7: DARPin #7 (SEQ ID NO: 7) with N-terminal His tag (designed binder)
chain: MRGSHHHHHHGSDLGQKLLRAAKKGQDDEVRELLKAGADVNAKDEQGWTPLHNAAWKGHLEIVEVLLKAGADVNAKDVFDWTPLHVAAHFGHLEIVEVLLKAGADVNAQDRAGETPADLAAQAGHEDIAEVLQKAA
